Source: US20260053904A1 (BIOATLA, published 2026)

T1: recombinant human EpCAM extracellular domain (human, UniProt P16422 24-265)
T1 construct: extracellular domain; Plate-coated antigen of the ELISAs; also called human EpCAM ECD; recombinant EpCAM antigen
T1 sequence (looked up): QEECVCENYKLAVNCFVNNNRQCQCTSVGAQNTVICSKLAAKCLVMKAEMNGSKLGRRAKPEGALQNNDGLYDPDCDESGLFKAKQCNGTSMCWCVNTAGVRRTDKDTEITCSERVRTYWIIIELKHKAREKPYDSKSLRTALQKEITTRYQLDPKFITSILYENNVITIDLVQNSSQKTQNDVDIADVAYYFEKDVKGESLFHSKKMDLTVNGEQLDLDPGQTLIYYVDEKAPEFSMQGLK

T2: human EpCAM expressed on cells (CHO, Colo205, 293) (human, UniProt P16422 24-314)
T2 construct: whole, on cells; also called CHO cells expressing human EpCAM; Colo205 cells expressing human EpCAM
T2 sequence (looked up): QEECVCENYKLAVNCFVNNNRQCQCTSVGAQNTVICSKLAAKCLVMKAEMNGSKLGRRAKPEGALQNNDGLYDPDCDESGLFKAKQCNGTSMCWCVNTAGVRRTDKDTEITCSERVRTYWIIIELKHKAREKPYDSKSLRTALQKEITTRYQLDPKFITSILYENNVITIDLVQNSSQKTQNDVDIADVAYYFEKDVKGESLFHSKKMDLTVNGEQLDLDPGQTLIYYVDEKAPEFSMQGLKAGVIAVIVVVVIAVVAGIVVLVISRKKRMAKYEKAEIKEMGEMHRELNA


What was measured:
[1] = molecular target: T3, cyno EpCAM (recombinant, ELISA antigen) (cynomolgus monkey); assay: direct binding ELISA, cyno EpCAM, pH 6.0 (printed as IC50)
T3 construct: extracellular domain; also called cynomolgus EpCAM extracellular domain

[2] = molecular target: T3, cyno EpCAM (recombinant, ELISA antigen); assay: direct binding ELISA, cyno EpCAM, pH 7.4 (printed as IC50)
[3] = molecular target: T3, cyno EpCAM (recombinant, ELISA antigen); assay: direct binding ELISA, cyno EpCAM; ratio of the printed IC50 at pH 7.4 to pH 6.0
[4] = molecular target: T1, recombinant human EpCAM extracellular …; assay: direct binding ELISA, human EpCAM; ratio of the printed IC50 at pH 7.4 to pH 6.0
[5] = molecular target: T1, recombinant human EpCAM extracellular …; assay: direct binding ELISA, human EpCAM, pH 6.0 (table prints IC50, the text paragraph 376 says EC50)
[6] = molecular target: T1, recombinant human EpCAM extracellular …; assay: direct binding ELISA, human EpCAM, pH 7.4 (table prints IC50, the text paragraph 376 says EC50)
[7] = molecular target: T3, cyno EpCAM (recombinant, ELISA antigen); assay: ELISA with pH titration, cyno EpCAM
Protocol: (§1) Binding activities of the conjugated humanized conditionally active anti-EpCAM antibodies to cyno EpCAM were also measured by ELISA with pH titration. […] The ratios of binding activities at pH 6.0 and pH 7.4 to the cyno EpCAM by the conjugated humanized conditionally active anti-EpCAM antibodies, as well as their pH inflection points are summarized in Table 15.
(§2) The ELISA assay was performed using the following protocol: [0388] 1) Coat ELISA plates with 100 μL of 0.5 μg/mL (06_20_17 and 06_28_17 Experiments) or 1 μg/mL (07_06_17 and 07_11_17 Experiments) recombinant EpCAM antigen in carbonate-bicarbonate coating buffer [0389] 2) Cover plates with sealing film and incubate overnight at 4° C. [0390] 3) Decant plates and tap out residual liquid on a stack of paper towels [0391] […] 5) Add 200 μL of various pH incubation buffers to the wells according to the sample map.
Target sequence in this assay (Q1WER1 24-265): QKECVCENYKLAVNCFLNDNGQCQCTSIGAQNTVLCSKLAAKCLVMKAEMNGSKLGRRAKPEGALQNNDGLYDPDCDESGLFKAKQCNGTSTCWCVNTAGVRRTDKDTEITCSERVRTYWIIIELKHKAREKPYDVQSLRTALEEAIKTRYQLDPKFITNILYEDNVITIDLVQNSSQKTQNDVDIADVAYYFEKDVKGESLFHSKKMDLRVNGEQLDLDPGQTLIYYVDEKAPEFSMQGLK

[8] = molecular target: T1, recombinant human EpCAM extracellular …; assay: ELISA with pH titration, human EpCAM
Protocol: (§3) Binding activities of conjugated humanized conditionally active anti-EpCAM antibodies to human EpCAM were measured by ELISA with pH titration. […] The ratios of binding activities to human EpCAM of the conjugated humanized conditionally active anti-EpCAM antibodies at pH 6.0 and pH 7.4, as well as their pH inflection points are summarized in Table 14.
as §2

[9] = molecular target: T3, cyno EpCAM (recombinant, ELISA antigen); assay: ELISA of MMAE conjugates, cyno EpCAM, pH 6.0
Protocol: (§4) A similar ELISA analysis was also carried out using cyno EpCAM to measure the binding affinities of the conjugated humanized conditionally active anti-EpCAM antibodies. […] The EC50 values for binding to the cyno EpCAM by the conjugated humanized conditionally active anti-EpCAM antibodies are summarized in Table 13.
as §2
Target sequence in this assay (Q1WER1 24-265): as above

[10] = molecular target: T3, cyno EpCAM (recombinant, ELISA antigen); assay: ELISA of MMAE conjugates, cyno EpCAM, pH 7.4
Protocol: as §4, §2
Target sequence in this assay (Q1WER1 24-265): as above

[11] = molecular target: T1, recombinant human EpCAM extracellular …; assay: ELISA of MMAE conjugates, human EpCAM, pH 6.0
Protocol: (§5) The humanized conditionally active anti-EpCAM antibodies were conjugated to MMAE to create antibody drug conjugates. Binding activities of the conjugated humanized conditionally active anti-EpCAM antibodies to human EpCAM were measured by ELISA at pH 6.0 and pH 7.4 at different antibody concentrations. […] The EC50 values for binding to the human EpCAM by the conjugated humanized conditionally active anti-EpCAM antibodies are summarized in Table 12.
as §2

[12] = molecular target: T1, recombinant human EpCAM extracellular …; assay: ELISA of MMAE conjugates, human EpCAM, pH 7.4
Protocol: as §5, §2

[13] = molecular target: T4, cyno EpCAM expressed on 293 cells (cynomolgus monkey); assay: FACS of MMAE conjugates on 293 cells expressing cyno EpCAM, pH 6.0
T4 construct: whole, on cells; also called 293 cells expressing cyno EpCAM
T4 sequence (Q1WER1 24-314): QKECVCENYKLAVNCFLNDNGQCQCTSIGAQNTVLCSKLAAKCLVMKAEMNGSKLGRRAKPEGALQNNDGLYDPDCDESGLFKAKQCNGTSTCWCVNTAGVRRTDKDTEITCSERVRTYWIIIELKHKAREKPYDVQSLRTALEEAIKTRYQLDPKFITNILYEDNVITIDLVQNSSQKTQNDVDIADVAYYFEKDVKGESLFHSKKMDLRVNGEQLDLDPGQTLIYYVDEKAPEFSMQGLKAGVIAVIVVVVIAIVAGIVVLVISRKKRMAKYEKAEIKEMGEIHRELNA
Protocol: (§6) A similar FACS analysis was also carried out using 293 cells expressing cyno EpCAM. […] The EC50 values for binding to the 293 cells expressing cyno EpCAM by the conjugated humanized conditionally active anti-EpCAM antibodies are summarized in Table 18.

[14] = molecular target: T4, cyno EpCAM expressed on 293 cells; assay: FACS of MMAE conjugates on 293 cells expressing cyno EpCAM, pH 7.4
Protocol: as §6

[15] = molecular target: T2, human EpCAM expressed on cells (CHO, …); assay: FACS of MMAE conjugates on 293 cells expressing human EpCAM, pH 6.0
Protocol: (§7) A similar FACS analysis was also carried out using 293 cells expressing human EpCAM. […] The EC50 values for binding to the 293 cells expressing human EpCAM by the conjugated humanized conditionally active anti-EpCAM antibodies are summarized in Table 17.

[16] = molecular target: T2, human EpCAM expressed on cells (CHO, …); assay: FACS of MMAE conjugates on 293 cells expressing human EpCAM, pH 7.4
Protocol: as §7

[17] = molecular target: T2, human EpCAM expressed on cells (CHO, …); assay: FACS of MMAE conjugates on Colo205 cells expressing human EpCAM, pH 6.0
Protocol: (§8) Binding activities of the conjugated humanized conditionally active anti-EpCAM antibodies (with MMAE) to Colo205 cells expressing human EpCAM was measured by FACS at two different pH: 6.0 and 7.4. […] The EC50 values for binding to the Colo205 cells expressing human EpCAM by the conjugated humanized conditionally active anti-EpCAM antibodies are summarized in Table 16.

[18] = molecular target: T2, human EpCAM expressed on cells (CHO, …); assay: FACS of MMAE conjugates on Colo205 cells expressing human EpCAM, pH 7.4
Protocol: as §8

[19] = molecular target: T3, cyno EpCAM (recombinant, ELISA antigen); assay: ELISA with pH titration, cyno EpCAM; ratio of binding activities at pH 6.0 and pH 7.4
Protocol: as §1, §2
Target sequence in this assay (Q1WER1 24-265): as the sequence (Q1WER1 24-265) above

[20] = molecular target: T1, recombinant human EpCAM extracellular …; assay: ELISA with pH titration, human EpCAM; ratio of binding activities at pH 6.0 and pH 7.4
Protocol: as §3, §2

[21] = molecular target: T2, human EpCAM expressed on cells (CHO, …); assay: cell-based or functional assay

Row | Binder | pH inflection point [7] [pH] | pH inflection point [8] [pH] | EC50 [9] [µg/mL] | EC50 [10] [µg/mL] | EC50 [11] [µg/mL] | EC50 [12] [µg/mL] | EC50 [13] [µg/mL] | EC50 [14] [µg/mL] | EC50 [15] [µg/mL] | EC50 [16] [µg/mL] | EC50 [17] [µg/mL] | EC50 [18] [µg/mL] | ratio (pH 6.0/7.4) [19] | ratio (pH 6.0/7.4) [20] | further results
1 | BA-105-06-01 (antibody, V domains shown, Humanized) VH: EVQLVQSGAEVKKPGATVKISCKVSGYTFTSYWMHWIRQPPGKGLEWIGYIRPSTGYTEYNQKFKDRFTISRDNSKNTLYLQMNSLRAEDTAVYYCGRGDNWVGFANWGQGTLVTVSS VL: EIVLTQSPDFQSVTPKEKVTITCSASSSISYMHWYQQKPGKAPKLLIYSTSKLASGVPDRFSGSGSGTDFTLKISRVEAEDVGVYYCHQWSTYETFGQGTKVEIK | – | – | – | – | – | – | – | – | – | – | – | – | – | – | IC50 [1]: 0.00371 µg/mL; IC50 [2]: 0.0635 µg/mL; ratio (pH7.4/pH6.0) [3]: 17.1; ratio (pH7.4/pH6.0) [4]: 5.6; IC50 [5]: 0.0299 µg/mL; IC50 [6]: 0.168 µg/mL
2 | BA-105-01-01 7376-vcMMAE (antibody, V domains shown, antibody conjugated to vcMMAE; chain and residues of attachment not stated) VH: QVQLQQSGAELAKPGASVKVSCKASGYTFTSYWMHWVKQRPGQGLEWIGYIRPSTGYTEYNQKFKDKATLTADKSSSTAYMQLSSLTFEDSAVYYCGRGDNWVGFANWGQGTLVTVSA VL: QIVLTQSPAIMSASLGEEIALTCSASSSISYMHWYQQKSGTSPKLLIYSTSNLASGVPSRFSGSGSGTFYSLTISSVEAEDAADYFCHQWSTYHTFGSGTKLEIK | 5.07 | 6.71 | 0.0311 | 0.0234 | 0.024 | 0.0147 | 1.36 | 1.74 | 0.129 | 0.112 | 0.301 | 0.375 | 0.93 | – | IC50 for the in vitro killing of Colo205 cells, pH6.0 [21]: 12.9 ng/mL; IC50 for the in vitro killing of Colo205 cells, pH7.4 [21]: 16.8 ng/mL; ratio (pH7.4/pH6.0) of the IC50 for the in vitro killing of Colo205 cells [21]: 1.3

The next lines start with results.

Row | pH inflection point [7] [pH] | pH inflection point [8] [pH] | EC50 [9] [µg/mL] | EC50 [10] [µg/mL] | EC50 [11] [µg/mL] | EC50 [12] [µg/mL] | EC50 [13] [µg/mL] | EC50 [14] [µg/mL] | EC50 [15] [µg/mL] | EC50 [16] [µg/mL] | EC50 [17] [µg/mL] | EC50 [18] [µg/mL] | ratio (pH 6.0/7.4) [19] | ratio (pH 6.0/7.4) [20] | Binder | further results
3 | 6.16 | 6.83 | 0.0809 | 0.249 | 0.0324 | 0.22 | 7.96 | 61.1 | 0.206 | 0.335 | 0.464 | 0.693 | 3.61 | 6.74 | BA-105.4-02-01 8318-vcMMAE (antibody, V domains shown, antibody conjugated to vcMMAE; chain and residues of attachment not stated) VH: EVQLVQSGAEVKKPGATVKISCKVSGYTFTSYWMHWVRQAPGQGLEWMGYIRPSTGYTEYNQKFKDRFTISRDNSKNTLYLQMNSLRAEDTAVYYCGRGDNWVGFANWGQGTLVTVSS VL: EIVMTQSPATLSVSPGERATLSCSASSSISYMHWYQQKPGKAPKLLIYSTSNLASGVPSRFSGSGSGTEFTLTISSLQPDDFATYYCHQWSTYETFGQGTKVEIK | –
4 | 6.28 | 6.98 | 0.0659 | 0.3 | 0.0306 | 0.0703 | 5.54 | 43.4 | 0.0772 | 0.109 | 0.188 | 0.203 | 2.76 | 2.39 | BA-105.4-01-05 8317-vcMMAE (antibody, V domains shown, antibody conjugated to vcMMAE; chain and residues of attachment not stated) VH: EVQLVQSGAEVKKPGATVKISCKVSGYTFTSYWMHWIRQPPGKGLEWIGYIRPSTGYTEYNQKFKDRFTISRDNSKNTLYLQMNSLRAEDTAVYYCGRGDNWVGFANWGQGTLVTVSS VL: EIVLTQSPDFQSVTPKEKVTITCSASSSISYMHWYQQKPGKAPKLLIYSTSNLASGVPDRFSGSGSGTDFTLKISRVEAEDVGVYYCHQWSTYETFGQGTKVEIK | –
5 | 6.3 | – | 0.0877 | 0.257 | 0.0392 | 0.127 | 4.72 | 17.7 | 0.0637 | 0.0849 | 0.15 | 0.153 | 2.75 | 1.75 | BA-105.4-01-02 8316-vcMMAE (antibody, V domains shown, antibody conjugated to vcMMAE; chain and residues of attachment not stated) VH: EVQLVQSGAEVKKPGESLRISCKGSGYTFTSYWMHWIRQSPSRGLEWLGYIRPSTGYTEYNQKFKDRVTISADKSISTAYLQWSSLKASDTAMYYCGRGDNWVGFANWGQGTLVTVSS VL: EIVLTQSPDFQSVTPKEKVTITCSASSSISYMHWYQQKPGKAPKLLIYSTSNLASGVPDRFSGSGSGTDFTLKISRVEAEDVGVYYCHQWSTYETFGQGTKVEIK | –
